Reference: patent US20110217338A1

Key:
[1] = molecular target: IgG b12, broadly neutralizing anti-HIV-1 gp120 antibody; experiment: SPR, Biacore 2000, 25 C, IgG b12 immobilized on CM5 chip (900 RU)
[2] = molecular target: b122a displayed on the surface of yeast EBY100; experiment: flow cytometry of yeast EBY100 displaying b122a, b12 detected with anti-human-PE

| Substance | Kd [1] [nM] | concentration of b12 which showed appreciable binding [2] [µM] |
| --- | --- | --- |
| Core gp120 | 22 | – |
| IgG b12, broadly neutralizing anti-HIV-1 gp120 antibody | – | 9 |
| Wt gp120 (full-length HIV-1 gp120) | 17 | – |
